{
  "source": "patent US20160083461A1",
  "about": "(PHILOGEN S P A, published 2016)",
  "data": [
    {"target": "T1, antigen (11A12) containing the ED-A domain of human fibronectin (human, UniProt P02751 1629-1905)", "T1 construct": "Immobilised on a CM5 chip by amine coupling", "T1 sequence (P02751 other isoform, or with tags, fused parts or gaps limits assumed)": "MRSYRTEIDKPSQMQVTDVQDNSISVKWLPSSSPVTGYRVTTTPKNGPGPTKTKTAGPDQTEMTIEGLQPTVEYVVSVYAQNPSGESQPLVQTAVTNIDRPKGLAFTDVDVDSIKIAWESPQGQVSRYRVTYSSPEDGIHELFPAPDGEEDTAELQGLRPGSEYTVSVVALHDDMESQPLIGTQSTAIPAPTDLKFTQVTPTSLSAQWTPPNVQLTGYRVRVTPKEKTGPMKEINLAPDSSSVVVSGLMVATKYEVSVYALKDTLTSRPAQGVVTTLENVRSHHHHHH", "assay": "SPR (BIAcore), monomeric scFv over 11A12 immobilised on CM5 chip", "method": "The kₒₙ, koff and KD of the parent anti-ED-A antibody and anti-ED-A antibodies B2, C5, D5, C8, F8, B7 and G9 were evaluated using Surface Plasmon Resonance. The chip was equilibrated over night with the same buffer used during the assay at a buffer flow rate of 5 μl/min. The whole coating procedure was performed at this flow rate. The antigen 11A12 was diluted 1:25 with acetate buffer pH 4.00 (provided by BIACORE) to a final concentration of 20 μg/ml. The NHS and EDC were then mixed and 50 μl injected to activate the COOH groups on the CM5 chip. This was followed by injection of 40 μl of the antigen (this lasts about 40″). Then 30 μl of Ethanolammine were injected in order to block the reactivity of eventual free COOH.\nEach sample was assayed at a flow rate 20 μl/min. 20 μl of undiluted monomeric protein (as it comes out from the gel filtration) was injected. The dissociation time was left to run for about 200″. Then 10 μl of HCl 10 mM was injected to regenerate the chip. The injection of monomeric protein was repeated at different dilutions, i.e. 1:2 dilution (in PBS) followed by regeneration with HCl. This was followed by a third injection of the protein, at a dilution of 1:4 followed again by regeneration with HCl. The kₒₙ, koff and KD values for each anti-ED-A antibody were evaluated using the BIAevaluation software.", "units": {"Kd": "nM", "koff": "s⁻¹", "kon": "M⁻¹ s⁻¹"}, "values": [
      {"binder": "anti-ED-A antibody B7 (scFv, scFv; Supernatant in BIAcore analysis 1, purified monomeric fraction in BIAcore analysis 2) scFv: EVQLVESGGGLVQPGGSLRLSCAASGFTFSHFDMSWVRQAPGKGLEWVSAISGSGGSTYYADSVKGRFTISRDNSKNTLYLQMNSLRAEDTAVYYCAKSTHLYLFDYWGQGTLVTVSSGGGGSGGGGSGGGGSGGGGSEIVLTQSPGTLSLSPGEKATLSCRASQSVSLAFLAWYQQKPGQAPRLLIYGASSRATGIPDRFSGSGSGTDFTLTISRLEPEDFAVYYCQQMRGRPPTFGQGTKVEIKAAAEQKLISEEDLNGAA", "Kd": "~16.8", "koff": 0.0045, "kon": 267000},
      {"binder": "anti-ED-A antibody C5 (scFv, scFv; Supernatant in BIAcore analysis 1, purified monomeric fraction in BIAcore analysis 2) scFv: EVQLVESGGGLVQPGGSLRLSCAASGFTFSPITMSWVRQAPGKGLEWVSAISGSGGSTYYADSVKGRFTISRDNSKNTLYLQMNSLRAEDTAVYYCAKSTHLYLFDYWGQGTLVTVSSGGGGSGGGGSGGGGSGGGGSEIVLTQSPGTLSLSPGEKATLSCRASQSVSLHFLAWYQQKPGQAPRLLIYGASSRATGIPDRFSGSGSGTDFTLTISRLEPEDFAVYYCQQMRGRPPTFGQGTKVEIKAAAEQKLISEEDLNGAA", "Kd": "~30", "koff": 0.00923, "kon": 304000},
      {"binder": "anti-ED-A antibody B2 (scFv, scFv; Supernatant in BIAcore analysis 1, purified monomeric fraction in BIAcore analysis 2) scFv: EVQLVESGGGLVQPGGSLRLSCAASGFTFSAAKMSWVRQAPGKGLEWVSAISGSGGSTYYADSVKGRFTISRDNSKNTLYLQMNSLRAEDTAVYYCAKSTHLYLFDYWGQGTLVTVSSGGGGSGGGGSGGGGSGGGGSEIVLTQSPGTLSLSPGEKATLSCRASQSVSVAFLAWYQQKPGQAPRLLIYGASSRATGIPDRFSGSGSGTDFTLTISRLEPEDFAVYYCQQMRGRPPTFGQGTKVEIKAAAEQKLISEEDLNGAA", "Kd": "~20", "koff": 0.00754, "kon": 380000},
      {"binder": "anti-ED-A antibody F8 (scFv, scFv format, not the F8 diabody; Supernatant in BIAcore analysis 1, purified monomeric fraction in BIAcore analysis 2; also called anti-ED-A scFv F8) scFv: EVQLVESGGGLVQPGGSLRLSCAASGFTFSLFTMSWVRQAPGKGLEWVSAISGSGGSTYYADSVKGRFTISRDNSKNTLYLQMNSLRAEDTAVYYCAKSTHLYLFDYWGQGTLVTVSSGGGGSGGGGSGGGGSGGGGSEIVLTQSPGTLSLSPGEKATLSCRASQSVSMPFLAWYQQKPGQAPRLLIYGASSRATGIPDRFSGSGSGTDFTLTISRLEPEDFAVYYCQQMRGRPPTFGQGTKVEIKAAAEQKLISEEDLNGAA", "Kd": "~3.1", "koff": 0.0014, "kon": 465000},
      {"binder": "anti-ED-A antibody C8 (scFv, scFv; Supernatant in BIAcore analysis 1, purified monomeric fraction in BIAcore analysis 2) scFv: EVQLVESGGGLVQPGGSLRLSCAASGFTFSLQTMSWVRQAPGKGLEWVSAISGSGGSTYYADSVKGRFTISRDNSKNTLYLQMNSLRAEDTAVYYCAKSTHLYLFDYWGQGTLVTVSSGGGGSGGGGSGGGGSGGGGSEIVLTQSPGTLSLSPGEKATLSCRASQSVSLPFLAWYQQKPGQAPRLLIYGASSRATGIPDRFSGSGSGTDFTLTISRLEPEDFAVYYCQQMRGRPPTFGQGTKVEIKAAAEQKLISEEDLNGAA", "Kd": "~14", "koff": 0.0053, "kon": 380000},
      {"binder": "anti-ED-A antibody D5 (scFv, scFv; Supernatant in BIAcore analysis 1, purified monomeric fraction in BIAcore analysis 2) scFv: EVQLVESGGGLVQPGGSLRLSCAASGFTFSVMKMSWVRQAPGKGLEWVSAISGSGGSTYYADSVKGRFTISRDNSKNTLYLQMNSLRAEDTAVYYCAKSTHLYLFDYWGQGTLVTVSSGGGGSGGGGSGGGGSGGGGSEIVLTQSPGTLSLSPGEKATLSCRASQSVSNAFLAWYQQKPGQAPRLLIYGASSRATGIPDRFSGSGSGTDFTLTISRLEPEDFAVYYCQQMRGRPPTFGQGTKVEIKAAAEQKLISEEDLNGAA", "Kd": "~17", "koff": 0.0076, "kon": 453000},
      {"binder": "anti-ED-A antibody G9 (scFv, scFv; Supernatant in BIAcore analysis 1, purified monomeric fraction in BIAcore analysis 2) scFv: EVQLVESGGGLVQPGGSLRLSCAASGFTFSHMQMSWVRQAPGKGLEWVSAISGSGGSTYYADSVKGRFTISRDNSKNTLYLQMNSLRAEDTAVYYCAKSTHLYLFDYWGQGTLVTVSSGGGGSGGGGSGGGGSGGGGSEIVLTQSPGTLSLSPGEKATLSCRASQSVSTAFLAWYQQKPGQAPRLLIYGASSRATGIPDRFSGSGSGTDFTLTISRLEPEDFAVYYCQQMRGRPPTFGQGTKVEIKAAAEQKLISEEDLNGAA", "Kd": "~20.9", "koff": 0.00754, "kon": 360000}
    ]},
    {"target": "T1, antigen (11A12) containing the ED-A …", "assay": "SPR (BIAcore analysis 1), bacterial supernatant of scFv over immobilised 11A12; flatter dissociation curve than the parent", "method": "The BIAcore Chip was flushed overnight at a flow rate of 5 μl/min with HBS-EP buffer BIACORE, 0.01 M Hepes pH 7.4, 0.15 M NaCl, 3 mM EDTA, 0.005% surfactant P20 (same buffer used for the assay). The antigen (11A12) was diluted to a concentration of 50 μg/ml in acetate buffer (pH 4.0) and the COOH groups on the chip were activated by injection of 50 μl of a mix of N-Hydroxy Succinimmide (NHS) and ethyl-N-(dimethylaminopropyl)-carbodiimide (EDC). 40 μl of the 11A12 antigen were injected onto the chip and the residual free COOH groups were blocked with 30 μl of ethanolamine. After a 0.22 μm filtration, 20 μl of each individual bacterial supernatant were injected onto the chip and interaction with the antigen was monitored in real time.\nThe association curves of antibodies H1, C5, D5, E5, C8, F8 and F1 were flatter than that observed for the parent anti-ED-A antibody while the association curve observed for antibodies B2, B7, E8 and G9 was as steep as the association curve observed for the parent anti-ED-A antibody. However, as bacterial supernatants of IFTG-induced E. coli TG-1 cells were used for the BIAcore analysis of antibodies H1, B2, C5, D5, E5, C8, F8, F1, B7, E8 and G9, the concentration of the tested antibody samples was unknown but most probably lower than the concentration of the parent anti-ED-A antibody sample used for comparison. Consequently, the association curve of antibodies H1, B2, C5, D5, E5, C8, F8, F1, B7, E8 and G9 may be artificially low due to the low concentration of antibody in the samples used for the BIAcore analysis.", "values": [
      {"binder": "anti-ED-A antibody H1 (scFv, scFv, tested as bacterial supernatant in BIAcore analysis 1; Tags from the pHEN1 vector are not described) scFv: EVQLVESGGGLVQPGGSLRLSCAASGFTFSPRRMSWVRQAPGKGLEWVSAISGSGGSTYYADSVKGRFTISRDNSKNTLYLQMNSLRAEDTAVYYCAKSTHLYLFDYWGQGTLVTVSSGGGGSGGGGSGGGGSGGGGSEIVLTQSPGTLSLSPGEKATLSCRASQSVSSAWLAWYQQKPGQAPRLLIYGASSRATGIPDRFSGSGSGTDFTLTISRLEPEDFAVYYCQQMRGRPPTFGQGTKVEIKAAAEQKLISEEDLNGAA", "binding result": "binds"},
      {"binder": "anti-ED-A antibody E5 (scFv, scFv, tested as bacterial supernatant in BIAcore analysis 1) scFv: EVQLVESGGGLVQPGGSLRLSCAASGFTFSTGSMSWVRQAPGKGLEWVSAISGSGGSTYYADSVKGRFTISRDNSKNTLYLQMNSLRAEDTAVYYCAKSTHLYLFDYWGQGTLVTVSSGGGGSGGGGSGGGGSGGGGSEIVLTQSPGTLSLSPGEKATLSCRASQSVSLAHLAWYQQKPGQAPRLLIYGASSRATGIPDRFSGSGSGTDFTLTISRLEPEDFAVYYCQQMRGRPPTFGQGTKVEIKAAAEQKLISEEDLNGAA", "binding result": "binds"},
      {"binder": "anti-ED-A antibody F1 (scFv, scFv, tested as bacterial supernatant (E. coli TG-1) in BIAcore analysis 1) scFv: EVQLVESGGGLVQPGGSLRLSCAASGFTFSQARMSWVRQAPGKGLEWVSAISGSGGSTYYADSVKGRFTISRDNSKNTLYLQMNSLRAEDTAVYYCAKSTHLYLFDYWGQGTLVTVSSGGGGSGGGGSGGGGSGGGGSEIVLTQSPGTLSLSPGEKATLSCRASQSVSAPFLAWYQQKPGQAPRLLIYGASSRATGIPDRFSGSGSGTDFTLTISRLEPEDFAVYYCQQMRGRPPTFGQGTKVEIKAAAEQKLISEEDLNGAA", "binding result": "binds"},
      {"binder": "anti-ED-A antibody E8 (scFv, scFv, tested as bacterial supernatant in BIAcore analysis 1) scFv: EVQLVESGGGLVQPGGSLRLSCAASGFTFSDMHMSWVRQAPGKGLEWVSAISGSGGSTYYADSVKGRFTISRDNSKNTLYLQMNSLRAEDTAVYYCAKSTHLYLFDYWGQGTLVTVSSGGGGSGGGGSGGGGSGGGGSEIVLTQSPGTLSLSPGEKATLSCRASQSVSSSFLAWYQQKPGQAPRLLIYGASSRATGIPDRFSGSGSGTDFTLTISRLEPEDFAVYYCQQMRGRPPTFGQGTKVEIKAAAEQKLISEEDLNGAA", "binding result": "binds"}
    ]}
  ]
}
